The target of assay [1] is T1, recombinant human CD3 epsilon/gamma heterodimer (human, UniProt P07766 23-126; P09693 23-116).
T1 construct: Recombinant protein in solution (200-50 nM) in the Octet assay; also called hCD3 E/G
Description: Octet BLI, mAb on FAB2G sensor, hCD3 E/G 200-50 nM; R^2 0.99. In general terms: BLI is a label-free optical method that tracks binding on a fibre tip over time.

Assay [2] concerns the target T2, recombinant human CD3 epsilon/delta heterodimer (human, UniProt P07766 23-126; P04234 22-105).
T2 construct: Recombinant protein in solution (200-50 nM) in the Octet assay; also called hCD3 E/D; human CD3E/D
The assay can be described thus: Octet BLI, mAb on FAB2G sensor, hCD3 E/D 200-50 nM; R^2 0.99.

The target in another assay is recombinant CD3 proteins. The assay can be described thus: Octet (BLI), bispecific antibody against recombinant CD3 proteins.

T1 sequence (P07766 23-126, chain 1 of 2): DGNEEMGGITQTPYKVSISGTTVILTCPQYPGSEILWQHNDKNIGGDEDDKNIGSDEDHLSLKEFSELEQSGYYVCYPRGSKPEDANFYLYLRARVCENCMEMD
T1 sequence (P09693 23-116, chain 2 of 2): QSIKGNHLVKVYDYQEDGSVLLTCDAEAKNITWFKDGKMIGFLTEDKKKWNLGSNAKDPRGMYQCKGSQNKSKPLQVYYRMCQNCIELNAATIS
T2 sequence (P07766 23-126, stated change not applied, chain 1 of 2): as the sequence (P07766 23-126, chain 1 of 2) above
T2 sequence (P04234 22-105, stated change not applied, chain 2 of 2): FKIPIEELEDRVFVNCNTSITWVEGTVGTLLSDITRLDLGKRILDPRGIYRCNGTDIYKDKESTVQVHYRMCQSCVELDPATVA

B1: ABL-CD3-53 (antibody, V domains shown)
VH: EVQLVESGGGLVKPGGSLRLSCAASGFTFSSYTMNWVRQAPGKGLEWVSSITTSSSYIYYADSVKGRFTISRDNAKNSLYLQMNSLRAEDTAVYYCARVTFDAFDIWGQGTMVTVSS
VL: NFMLTQPHSVSESPGKTVTISCTRSSGSIASNYVQWYQQRPGSSPTTVIYEDNQRPSGVPDRFSGSIDSSSNSASLTISGLKTEDEADYYCQSYDSSNRVFGGGTKLTVL
notes: Chimeric hybridoma mAb: human V, CH1, upper hinge; mouse middle hinge, CH2, CH3
With B1, in assay [1], the dissociation constant (Kd) (usually the concentration at which binding is half-saturated) came out at 88.7 nM; the Response is 0.4; the koff (as a rule, a measure of how fast the partners let go of each other) was determined as 0.00714 s⁻¹; the on-rate (kon) – broadly, the rate constant with which the complex forms – was determined as 80500 M⁻¹ s⁻¹. Moreover, in assay [2], the dissociation constant Kd came to 146 nM, the Response was found to be 0.24, the koff came to 0.0199 s⁻¹ and the kon stood at 136000 M⁻¹ s⁻¹.

B2: ABL-CD3-55 (antibody, V domains shown)
VH: EVQLVESGGGLVKPGGSLRLSCAASGFTFSIYSMNWVRQAPGKGLEWVSSISSGSSYIYYADSVKGRFTISRDNAKSSLFLQMNSLRAEDTAVYYCAREKRELLFDYWGQGTLVTVSS
VL: NFMLTQPHSVSESPGKTVTISCTRSSGSIASNYVQWYQQRPGSSPTTVIYEDNQRPSGVPDRFSGSIDRSSNSASLTISGLKTEDEADYYCQSYDSSNRVFGGGTKLTVL
notes: as for B1
With B2, in assay [1], the equilibrium dissociation constant (Kd) amounted to 141 nM, the Response stood at 0.08, the koff is 0.0894 s⁻¹ and the kon is 636000 M⁻¹ s⁻¹. Moreover, in assay [2], the Kd is 183 nM, the Response is 0.13, the koff was found to be 0.069 s⁻¹ and the kon is 376000 M⁻¹ s⁻¹.

B3: ABL-CD3-54 (antibody, V domains shown)
VH: EVQLVESGGGLVKPGGSLRLSCAASGFTFSSYSMNWVRQAPGKGLEWVSSISRSSRYIFYADSVRGRFTISRDNAKNSLYLQMNSLRAEDTAVYYCAREKRELLFDYWGQGTLVTVSS
VL: NSMLTQPHSVSESPGKTVTISCTRSSGSIASYYVQWYQQRPGSSPTTVIYEDNQRPSGVPDRFSGSIDSSSNSASLTISGLKTEDEADYYCQSFDSSNRVFGGGTKLTVL
notes: as for B1
With B3, in assay [1], the Kd is 19.3 nM, the Response was 0.87, the koff amounted to 0.00258 s⁻¹ and the on-rate (kon) is 134000 M⁻¹ s⁻¹. Besides, in assay [2], the dissociation constant (Kd) was determined as 17.6 nM, the Response was determined as 0.87, the koff is 0.00267 s⁻¹ and the kon came to 152000 M⁻¹ s⁻¹.

B4: ABL-CD3-56 (antibody, V domains shown)
VH: EVQLVESGGGLVKPGGSLRLSCVASGFTFSRYSMNWVRQAPGKGLEWVSSISSSSRYTYYADSLKGRFIMSRDNAKNSLFLQMNSLRAEDTAVYYCARNLYNALDYWGQGTLVTVSS
VL: FMLTQPHSVSESPGKTVTISCTRSSGSIASNYVQWYQQRPGSSPTTVIYEDNQRPSGVPDRFSGSIDSSSNSASLTISGLQTEDEADYYCQSYDSSNRVFGGGTKLTVL
notes: as for B1
For the molecule B4, in assay [1], the Kd worked out at 0.94 nM, the Response worked out at 1.3, the koff came out at 0.000102 s⁻¹ and the kon was determined as 109000 M⁻¹ s⁻¹. Also, in assay [2], the Kd worked out at 3.96 nM, the Response turned out to be 1.24, the dissociation rate constant (koff) worked out at 0.000522 s⁻¹ and the kon was 132000 M⁻¹ s⁻¹.

B5: CD3 × CD33-BspAb36 (bispecific antibody)
chain 1: not shown
chain 2: EVQLVQSGAEVKKPGSSVKVSCKASGYTITDSNIHWVRQAPGQSLEWIGYIYPYNGGTDYNQKFKNRATLTVDNPTNTAYMELSSLRSEDTAFYYCVNGNPWLAYWGQGTLVTVSSASTKGPSVFPLAPSSKSTSGGTAALGCLVKDYFPEPVTVSWNSGALTSGVHTFPAVLQSSGLYSLSSVVTVPSSSLGTQTYICNVNHKPSNTKVDKRVEPKSCDKTHTCPPCPAPEFEGGPSVFLFPPKPKDTLMISRTPEVTCVVVDVSHEDPEVKFNWYVDGVEVHNAKTKPREEQYNSTYRVVSVLTVLHQDWLNGKEYKCKVSNKALPASIEKTISKAKGQPREPQVCTLPPSREEMTKNQVSLSCAVKGFYPSDIAVEWESNGQPENNYKTTPPVLDSDGSFFLVSKLTVDKSRWQQGNVFSCSVMHEALHNRFTQKSLSLSPGK
chain 3: DIQLTQSPSTLSASVGDRVTITCRASESLDNYGIRFLTWFQQKPGKAPKLLMYAASNQGSGVPSRFSGSGSGTEFTLTISSLQPDDFATYYCQQTKEVPWSFGQGTKVEVKRTVAAPSVFIFPPSDEQLKSGTASVVCLLNNFYPREAKVQWKVDNALQSGNSQESVTEQDSKDSTYSLSSTLTLSKADYEKHKVYACEVTHQGLSSPVTKSFNRGEC
For B5, in the assay with recombinant CD3 proteins, the dissociation constant Kd amounted to 205 nM, the Response amounted to 0.42, the koff was 0.00334 s⁻¹ and the kon came out at 16300 M⁻¹ s⁻¹.

B6: CD3 × CD33-BspAb39 (bispecific antibody)
chain 1: not shown
chain 2: EVQLVQSGAEVKKPGSSVKVSCKASGYTITDSNIHWVRQAPGQSLEWIGYIYPYNGGTDYNQKFKNRATLTVDNPTNTAYMELSSLRSEDTAFYYCVNGNPWLAYWGQGTLVTVSSASTKGPSVFPLAPSSKSTSGGTAALGCLVKDYFPEPVTVSWNSGALTSGVHTFPAVLQSSGLYSLSSVVTVPSSSLGTQTYICNVNHKPSNTKVDKRVEPKSCDKTHTCPPCPAPEFEGGPSVFLFPPKPKDTLMISRTPEVTCVVVDVSHEDPEVKFNWYVDGVEVHNAKTKPREEQYNSTYRVVSVLTVLHQDWLNGKEYKCKVSNKALPASIEKTISKAKGQPREPQVCTLPPSREEMTKNQVSLSCAVKGFYPSDIAVEWESNGQPENNYKTTPPVLDSDGSFFLVSKLTVDKSRWQQGNVFSCSVMHEALHNRFTQKSLSLSPGK
chain 3: DIQLTQSPSTLSASVGDRVTITCRASESLDNYGIRFLTWFQQKPGKAPKLLMYAASNQGSGVPSRFSGSGSGTEFTLTISSLQPDDFATYYCQQTKEVPWSFGQGTKVEVKRTVAAPSVFIFPPSDEQLKSGTASVVCLLNNFYPREAKVQWKVDNALQSGNSQESVTEQDSKDSTYSLSSTLTLSKADYEKHKVYACEVTHQGLSSPVTKSFNRGEC
As for B6, in the assay with recombinant CD3 proteins, the Kd was found to be 299 nM, the Response is 0.1, the dissociation rate constant (koff) came to 0.117 s⁻¹ and the association rate constant (kon) worked out at 391000 M⁻¹ s⁻¹.

B7: CD3 × CD33-BspAb38 (bispecific antibody)
chain 1: not shown
chain 2: EVQLVQSGAEVKKPGSSVKVSCKASGYTITDSNIHWVRQAPGQSLEWIGYIYPYNGGTDYNQKFKNRATLTVDNPTNTAYMELSSLRSEDTAFYYCVNGNPWLAYWGQGTLVTVSSASTKGPSVFPLAPSSKSTSGGTAALGCLVKDYFPEPVTVSWNSGALTSGVHTFPAVLQSSGLYSLSSVVTVPSSSLGTQTYICNVNHKPSNTKVDKRVEPKSCDKTHTCPPCPAPEFEGGPSVFLFPPKPKDTLMISRTPEVTCVVVDVSHEDPEVKFNWYVDGVEVHNAKTKPREEQYNSTYRVVSVLTVLHQDWLNGKEYKCKVSNKALPASIEKTISKAKGQPREPQVCTLPPSREEMTKNQVSLSCAVKGFYPSDIAVEWESNGQPENNYKTTPPVLDSDGSFFLVSKLTVDKSRWQQGNVFSCSVMHEALHNRFTQKSLSLSPGK
chain 3: DIQLTQSPSTLSASVGDRVTITCRASESLDNYGIRFLTWFQQKPGKAPKLLMYAASNQGSGVPSRFSGSGSGTEFTLTISSLQPDDFATYYCQQTKEVPWSFGQGTKVEVKRTVAAPSVFIFPPSDEQLKSGTASVVCLLNNFYPREAKVQWKVDNALQSGNSQESVTEQDSKDSTYSLSSTLTLSKADYEKHKVYACEVTHQGLSSPVTKSFNRGEC
As for B7, in the assay with recombinant CD3 proteins, the dissociation constant (Kd) came out at 81 nM, the Response came to 0.28, the koff was 0.0203 s⁻¹ and the on-rate constant (kon) amounted to 250000 M⁻¹ s⁻¹.

The values are drawn from patent US20260167721A1 (ABLEXIS, published 2026).
